# Source: patent publication US12624097B2, “Nucleic acids, vectors, and cells that encode anti-Sp17 antibodies and other Sp17 binding proteins” (Medicovestor, Inc., priority 2023, dated 2026)
# “Also recorded” adds a separate entry of the source.
# Key:
# [1] = test system: 33 normal human tissues; assay: Immunohistochemistry on a normal tissue microarray (specificity); details: 33 normal tissues, 2-3 human donors per tissue
# Protocol: The specificity of the chAB2 antibody for Sp17 was determined with immunohistochemistry on a normal tissue microarray, which consisted of 33 normal tissues obtained from 2-3 human donors per tissue. The normal tissues included brain, eye, adrenal gland, hypophyseal, thyroid, parathyroid, tonsil, thymus, spleen, heart, lung, larynx, esophagus, stomach, small intestine, colon, liver, pancreas, salivary gland, kidney, bone, skeletal, skin, peripheral nerve, mesothelial, breast, ovary, endometrium, cervix, testis, and prostate.
# [2] = target: T1, Sp17 protein (Homo sapiens, UniProt Q15506); assay: Western blot detection of Sp17 protein; format: binding
# T1 sequence (Q15506 1-151): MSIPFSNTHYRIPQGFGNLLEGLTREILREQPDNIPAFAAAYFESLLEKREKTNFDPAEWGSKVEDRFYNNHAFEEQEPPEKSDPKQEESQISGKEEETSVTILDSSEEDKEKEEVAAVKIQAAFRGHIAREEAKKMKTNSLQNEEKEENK
# From the text: The nucleotide sequences encoding the VH and VL regions of Example 1 were cloned into a […] heavy chain gene and a mouse kappa light chain gene, respectively, and expressed in CHO-S cells to produce a mouse-human chimeric antibody, which was named chAB2. Successful generation of the antibody was confirmed by SDS-PAGE and western blotting using anti-mouse heavy and light chain antibodies and recombinant Sp17 protein (FIGS. 2 & 3).
# The VH and VL nucleotide sequences of Example 1 were cloned into a human IgG4 heavy chain gene and a human kappa light chain gene, respectively. A Ser228Pro mutation was introduced in the heavy chain to reduce non-specific Fc receptor gamma binding. The resultant antibody was named SP17-AB2. Successful cloning was confirmed by sequence analysis. The amino acid sequences of the heavy chain and light chain are shown in Table 4, and the Ser228Pro mutation is underlined in SEQ ID NO: 11.
molecule,measurement,setting,value
"chAB2: mouse-human chimeric anti-Sp17 monoclonal antibody; human VH/VL (SEQ ID NO: 3, 4) with mouse IgG2a heavy and mouse kappa light chain (antibody, V domains shown, mouse IgG2a heavy and mouse kappa constant regions) VH: QVQLQQSGAEVKKPGSSVKVSCKASGGTFSSYAISWVRQAPGQGLEWMGRIIPILGIANYAQKFQGRVTITADKSTSTAYMELSSLRSEDTAVYYCARPSEEVVAAYGAFDIWGQGTTVTVSS VL: EIVLTQSPLSLPVRPGEPASISCRASQSLLRSDGFNYLDWYLQKPGQSPQLLVYLGSNRASGVPDRFSGSGSGTDFTLKISRVEAEDVGVYYCMQAVQTPYIFGQGTKLEIK",binding to normal tissues (cross-reactivity),[1],bound to testis and did not bind to normal tissues; also recorded: lack detectable cross-reactivity
same,binding to Sp17 protein by western blot,[2],Sp17 protein was detected
